Data set [1] concerns the target Grb2 SH2 (UniProt P62993). The experiment in a line: SH2 binding enrichment of the phosphorylated peptide, bacterial display (enrichment ratio); higher = better substrate or ligand; peptides without Tyr show the background.
Data set [2] has as its target c-Src SH2. Described as above.
In data set [3] the target is SHP2-C SH2. Described as above.
In data set [4] the test system is c-Src. Put plainly: phosphorylation enrichment, bacterial display (enrichment ratio); higher = better substrate or ligand; peptides without Tyr show the background.
The target in data set [5] is MERTK (UniProt Q12866). The data set is described as above.
In data set [6] the target is Jak2 (UniProt O60674). The description is as above.
Data set [7] has as its target Fes (UniProt P07332). The data set is described as above.
Data set [8] concerns c-Abl (mouse). Described as above.
For data set [9], the target named is Fyn (UniProt P06241). The data set is described as above.
Data set [10] deals with Hck (UniProt P08631). Described as above.
For data set [11], the target named is EPHB2 (UniProt P29323). Described as above.
The target of data set [12] is EPHB1 (UniProt P54762). The description is as above.
Data set [13] addresses FGFR1 (UniProt P11362). The description is as above.
Data set [14] addresses FGFR3 (UniProt P22607). The description is as above.
In data set [15] the test system is Fer (mouse). Described as above.
The subject of data set [16] is AncSZ. Described as above.
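Wherever SH2 binding enrichment of the phosphorylated peptide, bacterial display is given: peptide library displayed on the E. coli surface as eCPX fusions, selected cells deep-sequenced, score is each peptide's frequency after selection divided by its frequency in the input.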
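Wherever phosphorylation enrichment, bacterial display is given: 11-residue human phosphosite peptides and single-mutation variants displayed on the E. coli surface, counted by deep sequencing, each peptide's frequency after selection divided by its frequency in the unselected input library; frequency after pTyr selection over input frequency; kinase dosed for 20-30% of maximal phosphorylation in three min.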

Chain of Jak2 (O60674 whole entry, looked up): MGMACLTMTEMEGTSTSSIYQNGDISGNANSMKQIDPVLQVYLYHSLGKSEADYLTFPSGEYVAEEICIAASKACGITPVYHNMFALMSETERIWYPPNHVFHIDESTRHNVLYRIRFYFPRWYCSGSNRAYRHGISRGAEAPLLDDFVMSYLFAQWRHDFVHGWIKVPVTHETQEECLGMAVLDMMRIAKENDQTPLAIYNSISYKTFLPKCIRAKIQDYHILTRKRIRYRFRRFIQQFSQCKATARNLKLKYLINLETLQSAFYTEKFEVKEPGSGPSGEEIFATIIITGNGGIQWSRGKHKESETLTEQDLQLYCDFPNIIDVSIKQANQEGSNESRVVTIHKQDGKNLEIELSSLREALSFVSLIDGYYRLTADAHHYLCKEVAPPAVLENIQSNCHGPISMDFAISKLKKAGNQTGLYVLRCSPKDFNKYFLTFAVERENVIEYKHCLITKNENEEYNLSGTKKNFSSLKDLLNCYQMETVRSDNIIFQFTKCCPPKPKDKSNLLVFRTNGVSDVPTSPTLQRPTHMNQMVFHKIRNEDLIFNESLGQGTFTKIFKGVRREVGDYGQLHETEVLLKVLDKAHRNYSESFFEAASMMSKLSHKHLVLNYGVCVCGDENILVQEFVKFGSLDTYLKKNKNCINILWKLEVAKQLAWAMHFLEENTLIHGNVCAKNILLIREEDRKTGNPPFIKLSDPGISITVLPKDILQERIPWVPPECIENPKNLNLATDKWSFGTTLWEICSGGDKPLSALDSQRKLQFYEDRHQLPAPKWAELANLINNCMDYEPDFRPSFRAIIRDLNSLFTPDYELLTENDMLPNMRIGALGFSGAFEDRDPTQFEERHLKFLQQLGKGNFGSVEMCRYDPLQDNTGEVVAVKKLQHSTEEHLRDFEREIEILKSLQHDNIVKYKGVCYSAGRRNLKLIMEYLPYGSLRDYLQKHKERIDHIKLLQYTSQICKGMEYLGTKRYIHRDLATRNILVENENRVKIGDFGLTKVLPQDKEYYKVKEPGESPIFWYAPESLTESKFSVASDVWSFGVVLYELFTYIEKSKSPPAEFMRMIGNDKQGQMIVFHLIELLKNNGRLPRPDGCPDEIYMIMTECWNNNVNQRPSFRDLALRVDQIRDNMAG
Chain of EPHB2 (P29323 whole entry, looked up): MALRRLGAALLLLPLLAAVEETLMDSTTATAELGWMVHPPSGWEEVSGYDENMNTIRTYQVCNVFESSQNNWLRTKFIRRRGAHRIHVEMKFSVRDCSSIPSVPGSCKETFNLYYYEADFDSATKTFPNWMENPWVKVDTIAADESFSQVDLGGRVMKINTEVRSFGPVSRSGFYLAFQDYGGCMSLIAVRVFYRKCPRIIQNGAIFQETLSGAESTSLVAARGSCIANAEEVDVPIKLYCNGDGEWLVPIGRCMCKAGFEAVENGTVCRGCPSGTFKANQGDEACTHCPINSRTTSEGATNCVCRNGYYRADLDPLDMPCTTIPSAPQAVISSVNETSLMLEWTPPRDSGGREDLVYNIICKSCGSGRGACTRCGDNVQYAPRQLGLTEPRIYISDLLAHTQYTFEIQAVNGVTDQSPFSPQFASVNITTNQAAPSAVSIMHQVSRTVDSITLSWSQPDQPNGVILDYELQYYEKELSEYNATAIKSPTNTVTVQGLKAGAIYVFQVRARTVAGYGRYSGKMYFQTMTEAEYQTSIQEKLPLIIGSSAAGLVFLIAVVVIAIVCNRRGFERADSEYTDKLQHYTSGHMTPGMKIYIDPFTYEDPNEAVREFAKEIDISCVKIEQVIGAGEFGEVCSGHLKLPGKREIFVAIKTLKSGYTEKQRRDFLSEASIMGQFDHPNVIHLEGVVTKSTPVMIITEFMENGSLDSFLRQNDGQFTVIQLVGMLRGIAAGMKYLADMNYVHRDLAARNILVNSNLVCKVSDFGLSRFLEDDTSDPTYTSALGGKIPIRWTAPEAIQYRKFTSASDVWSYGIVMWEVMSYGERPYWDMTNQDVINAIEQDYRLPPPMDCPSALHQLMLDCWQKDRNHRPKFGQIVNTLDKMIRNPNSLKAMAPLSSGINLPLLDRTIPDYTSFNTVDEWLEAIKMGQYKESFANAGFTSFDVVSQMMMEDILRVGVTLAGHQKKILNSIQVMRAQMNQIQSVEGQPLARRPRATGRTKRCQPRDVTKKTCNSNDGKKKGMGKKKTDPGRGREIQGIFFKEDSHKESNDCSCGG
Chain of MERTK (Q12866 whole entry, looked up): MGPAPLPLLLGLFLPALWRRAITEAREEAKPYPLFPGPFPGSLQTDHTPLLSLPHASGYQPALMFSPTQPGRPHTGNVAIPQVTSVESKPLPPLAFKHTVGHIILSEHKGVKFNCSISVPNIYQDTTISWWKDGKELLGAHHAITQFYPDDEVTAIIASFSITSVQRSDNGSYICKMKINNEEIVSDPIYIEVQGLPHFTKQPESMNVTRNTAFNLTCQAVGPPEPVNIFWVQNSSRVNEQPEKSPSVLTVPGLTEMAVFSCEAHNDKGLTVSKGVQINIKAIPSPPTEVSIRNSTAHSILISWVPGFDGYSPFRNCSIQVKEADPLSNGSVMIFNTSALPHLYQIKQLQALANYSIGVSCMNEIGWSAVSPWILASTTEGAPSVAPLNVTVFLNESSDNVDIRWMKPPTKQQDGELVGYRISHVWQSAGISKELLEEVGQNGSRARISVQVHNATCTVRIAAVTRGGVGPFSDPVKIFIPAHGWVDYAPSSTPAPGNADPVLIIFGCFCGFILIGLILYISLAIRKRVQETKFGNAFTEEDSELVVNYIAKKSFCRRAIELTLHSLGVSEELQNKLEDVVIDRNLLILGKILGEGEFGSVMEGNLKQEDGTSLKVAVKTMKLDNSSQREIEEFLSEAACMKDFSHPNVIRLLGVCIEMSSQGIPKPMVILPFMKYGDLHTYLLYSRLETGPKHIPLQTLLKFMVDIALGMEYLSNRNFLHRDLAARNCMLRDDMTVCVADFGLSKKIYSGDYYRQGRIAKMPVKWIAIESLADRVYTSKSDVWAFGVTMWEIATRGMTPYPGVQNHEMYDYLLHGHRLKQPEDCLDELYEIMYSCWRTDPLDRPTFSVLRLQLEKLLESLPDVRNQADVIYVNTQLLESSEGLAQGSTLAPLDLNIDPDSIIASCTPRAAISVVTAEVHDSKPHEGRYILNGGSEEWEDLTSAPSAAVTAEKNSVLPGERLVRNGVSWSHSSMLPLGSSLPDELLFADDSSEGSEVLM
Chain of Grb2 SH2 (P62993 whole entry, looked up): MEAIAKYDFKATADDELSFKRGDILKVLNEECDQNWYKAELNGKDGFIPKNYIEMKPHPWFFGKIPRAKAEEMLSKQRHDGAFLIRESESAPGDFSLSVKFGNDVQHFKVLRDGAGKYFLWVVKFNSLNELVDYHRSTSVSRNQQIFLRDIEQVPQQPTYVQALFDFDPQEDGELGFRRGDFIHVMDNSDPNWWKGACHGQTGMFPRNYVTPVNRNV
Chain of FGFR1 (P11362 whole entry, looked up): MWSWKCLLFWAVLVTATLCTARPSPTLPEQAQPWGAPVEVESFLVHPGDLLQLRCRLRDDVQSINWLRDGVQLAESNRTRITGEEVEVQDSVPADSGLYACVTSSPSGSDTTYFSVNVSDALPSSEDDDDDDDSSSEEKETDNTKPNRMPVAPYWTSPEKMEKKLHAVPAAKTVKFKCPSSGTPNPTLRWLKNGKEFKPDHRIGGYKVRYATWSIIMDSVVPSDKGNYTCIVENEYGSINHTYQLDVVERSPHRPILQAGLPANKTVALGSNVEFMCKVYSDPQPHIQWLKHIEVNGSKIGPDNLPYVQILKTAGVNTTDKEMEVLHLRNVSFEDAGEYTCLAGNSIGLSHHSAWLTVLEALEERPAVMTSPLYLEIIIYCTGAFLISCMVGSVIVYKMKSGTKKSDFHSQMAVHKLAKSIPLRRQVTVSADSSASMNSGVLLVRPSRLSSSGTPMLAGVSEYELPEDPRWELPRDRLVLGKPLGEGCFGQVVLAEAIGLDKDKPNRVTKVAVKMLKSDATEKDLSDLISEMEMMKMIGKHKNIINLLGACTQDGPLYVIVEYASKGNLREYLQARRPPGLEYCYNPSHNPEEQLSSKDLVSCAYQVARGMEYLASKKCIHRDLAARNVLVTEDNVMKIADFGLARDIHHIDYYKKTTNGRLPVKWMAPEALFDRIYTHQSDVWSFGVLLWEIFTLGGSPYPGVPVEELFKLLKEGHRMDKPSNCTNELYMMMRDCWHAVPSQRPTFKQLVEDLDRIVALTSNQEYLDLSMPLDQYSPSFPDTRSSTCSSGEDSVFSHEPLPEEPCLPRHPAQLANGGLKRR
Chain of Fyn (P06241 whole entry, looked up): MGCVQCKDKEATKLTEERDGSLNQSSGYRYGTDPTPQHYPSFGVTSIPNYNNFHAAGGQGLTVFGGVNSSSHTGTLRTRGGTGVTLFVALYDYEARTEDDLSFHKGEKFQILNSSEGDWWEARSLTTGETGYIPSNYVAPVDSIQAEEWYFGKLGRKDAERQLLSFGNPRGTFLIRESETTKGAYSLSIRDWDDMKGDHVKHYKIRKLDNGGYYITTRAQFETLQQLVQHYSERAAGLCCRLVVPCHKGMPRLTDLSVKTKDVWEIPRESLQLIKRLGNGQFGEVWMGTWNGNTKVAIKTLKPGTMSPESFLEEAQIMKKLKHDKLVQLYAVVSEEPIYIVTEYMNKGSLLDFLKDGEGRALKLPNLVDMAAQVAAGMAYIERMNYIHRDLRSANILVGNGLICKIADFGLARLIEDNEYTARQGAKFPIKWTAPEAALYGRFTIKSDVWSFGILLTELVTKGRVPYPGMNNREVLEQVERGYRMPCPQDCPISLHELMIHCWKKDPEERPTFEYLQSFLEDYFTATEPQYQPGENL

As for QELRRYLKSGV [MICA_Y194], the SH2 binding enrichment in data set [1] was determined as 0.764; in [2] it was 0.465; in data set [3], 0.384. Moreover, the phosphorylation enrichment in data set [4] was determined as 0.577; in data set [5], 0.544; in data set [6], 0.566; in data set [7], 0.787; in data set [8], 0.659; in data set [9] it was 0.553. Moreover, the phosphorylation enrichment is 0.957 in [10]; 0.875 in data set [11]; 0.765 in data set [12]; 0.582 in data set [13]; 0.804 in [14]; 0.626 in data set [15]. In data set [16], the phosphorylation enrichment amounted to 0.652.
Turning to QGIIIYRAAYF [SLC25A4_Y187], the SH2 binding enrichment in data set [1] worked out at 1.01; in [2] it was 0.515; in data set [3] it was 0.642. Besides, the phosphorylation enrichment was found to be 0.544 in data set [4]; 0.541 in [5]; 1.13 in [6]; 1.91 in [7]; 1.28 in [8]; 0.574 in data set [9]. Besides, the phosphorylation enrichment in data set [10] came to 0.639; in data set [11] it was 0.767; in data set [12] it was 0.945; in [13] it was 0.688; in [14], 1.39; in data set [15], 0.773. The phosphorylation enrichment in data set [16] came out at 1.32.
In the case of QKTGDYFDLFG [PTPN11_Y62_N58K_YF], the SH2 binding enrichment in data set [1] was found to be 1.02; in data set [2], 0.583; in data set [3], 0.854. For the same sequence, the phosphorylation enrichment was 0.639 in data set [4]; 1.04 in [5]; 7.57 in [6]; 1.04 in data set [7]; 0.815 in data set [8]; 0.971 in data set [9]. Moreover, the phosphorylation enrichment in [10] was determined as 0.442; in [11], 6.35; in [12], 11; in data set [13], 20.1; in data set [14] it was 17; in data set [15], 0.434. Further, the phosphorylation enrichment in data set [16] was 2.17.
Take QKTGDYYDLYG [PTPN11_Y62_N58K]: the SH2 binding enrichment in [1] worked out at 0.899; in data set [2], 1.38; in [3], 1.04. Further, the phosphorylation enrichment in data set [4] was determined as 3.77; in data set [5] it was 3.24; in data set [6], 2.24; in [7], 1.33; in [8] it was 1.21; in data set [9], 3.77. Also, the phosphorylation enrichment in data set [10] was determined as 4.6; in data set [11] it was 6.98; in data set [12] it was 11; in data set [13] it was 20.8; in data set [14] it was 16.2; in data set [15] it was 0.586. Further, the phosphorylation enrichment in data set [16] is 2.31.
For QLATEYVFSDF [PANX1_Y10], the SH2 binding enrichment in data set [1] was determined as 0.895; in data set [2], 0.511; in [3], 0.679. Also, the phosphorylation enrichment in [4] was 0.837; in data set [5], 0.617; in data set [6], 1.57; in [7], 1.85; in [8], 0.907; in [9], 0.762. The phosphorylation enrichment in [10] came out at 0.703; in data set [11], 0.62; in data set [12], 0.615; in [13], 0.716; in [14] it was 1.21; in data set [15], 0.424. In addition, the phosphorylation enrichment in data set [16] is 0.996.
QLHREYCLSPR [HJURP_Y445]: the SH2 binding enrichment was 1.09 in data set [1], 1 in [2] and 1.17 in [3]. Moreover, the phosphorylation enrichment in data set [4] came to 1.34; in data set [5] it was 0.887; in data set [6], 0.877; in data set [7], 1.12; in data set [8], 1.13; in data set [9], 0.92. The phosphorylation enrichment in [10] was 0.889; in data set [11], 0.786; in data set [12] it was 0.784; in [13] it was 0.898; in data set [14], 0.733; in [15], 0.765. Besides, the phosphorylation enrichment in [16] is 1.38.
Regarding QMRLKYSQSDL [SMC1A_Y714], the SH2 binding enrichment in [1] is 0.871; in data set [2], 0.597; in [3], 0.703. In addition, the phosphorylation enrichment is 0.481 in [4]; 0.296 in [5]; 0.611 in data set [6]; 0.863 in data set [7]; 0.632 in data set [8]; 0.251 in data set [9]. In addition, the phosphorylation enrichment worked out at 0.369 in data set [10]; 0.476 in [11]; 0.335 in data set [12]; 0.437 in [13]; 0.453 in data set [14]; 0.365 in data set [15]. Also, in [16], the phosphorylation enrichment stood at 0.704.
As to QNTGDYFDLFG [PTPN11_Y62_YF], the SH2 binding enrichment came out at 0.795 in data set [1], 0.409 in data set [2] and 0.689 in data set [3]. The phosphorylation enrichment in data set [4] was found to be 1.56; in data set [5], 3.03; in [6], 11.6; in data set [7] it was 1.49; in data set [8] it was 1.48; in data set [9] it was 1.26. For the same sequence, the phosphorylation enrichment in data set [10] was found to be 1.3; in data set [11], 20.4; in data set [12], 23.3; in data set [13], 26.8; in [14] it was 23.3; in data set [15], 0.753. In addition, the phosphorylation enrichment in data set [16] was 8.28.

(Values after the supplement of paper PMC10065799, “High-throughput profiling of sequence recognition by tyrosine kinases and SH2 domains using bacterial peptide display” (eLife, 2023).)
